The source of these data is paper PMC12329532 (2025).

Common to all, as to experiment: FP
Test [1] concerns the target N-terminally His6-tagged human IDO1 (indoleamine 2,3-dioxygenase 1), purified apo-IDO1 (human, UniProt P14902 1-403, Alexa Fluor 488 on Cys groups (in the fluorescence polarisation assay only)).
The target of test [2] is His6-IDO1 K101D, purified (human, UniProt P14902 1-403, K101D, Alexa Fluor 488 on Cys groups).
For test [3], the target named is His6-IDO1 K101A, purified (human, UniProt P14902 1-403, K101A, Alexa Fluor 488 on Cys groups).

N-terminally His6-tagged human IDO1 (indoleamine 2,3-dioxygenase 1), purified apo-IDO1, sequence (P14902 whole entry): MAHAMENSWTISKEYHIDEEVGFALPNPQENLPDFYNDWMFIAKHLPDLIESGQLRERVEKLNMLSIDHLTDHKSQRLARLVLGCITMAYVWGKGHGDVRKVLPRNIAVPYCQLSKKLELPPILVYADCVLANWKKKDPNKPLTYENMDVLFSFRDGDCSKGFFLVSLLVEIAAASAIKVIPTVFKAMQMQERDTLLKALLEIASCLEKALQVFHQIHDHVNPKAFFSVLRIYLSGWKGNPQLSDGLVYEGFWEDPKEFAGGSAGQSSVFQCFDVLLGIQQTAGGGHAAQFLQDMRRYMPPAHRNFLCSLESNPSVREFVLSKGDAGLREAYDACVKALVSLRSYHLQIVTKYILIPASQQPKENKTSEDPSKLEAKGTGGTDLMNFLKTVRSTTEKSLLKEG

B1: human recombinant TC-GAPDH (GAPDH with a tetra-Cys insertion sequence near its heme binding site), wild type, purified (enzyme)
chain: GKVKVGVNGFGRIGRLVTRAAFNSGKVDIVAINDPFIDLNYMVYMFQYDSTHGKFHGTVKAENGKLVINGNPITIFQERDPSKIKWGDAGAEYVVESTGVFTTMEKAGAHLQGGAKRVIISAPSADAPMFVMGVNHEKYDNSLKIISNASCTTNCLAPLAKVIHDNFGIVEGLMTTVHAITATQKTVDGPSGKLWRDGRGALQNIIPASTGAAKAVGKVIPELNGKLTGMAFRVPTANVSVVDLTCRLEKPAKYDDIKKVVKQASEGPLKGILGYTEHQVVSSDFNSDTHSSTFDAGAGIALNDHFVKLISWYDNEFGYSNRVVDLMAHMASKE
For orientation: Kd means the free concentration of one partner at which half of the binding sites on the other are occupied at equilibrium, for simple one-to-one binding. High values mean a looser complex, low ones a tighter complex. As for B1, the Kd in test [1] amounted to 1.79 µM; in test [2], 4.45 µM; in test [3], 4.66 µM.
